These are literature values, as cited in patent US20220347322A1, “METHOD OF TREATING ARTERIOVENOUS MALFORMATIONS BY TARGETING THE EPHRIN PATHWAY” (THE REGENTS OF THE UNIVERSITY OF CALIFORNIA, priority 2019, published 2022).

The subject of this series is EphB4 signaling. Particulars: in mice; cited reference 38; cited from earlier work.

B1: sEphB4: The soluble extracellular domain of EphB4; pharmacological inhibitor of EphB4 signaling (protein, UniProt P54760 16-539, looked up)
extracellular domain: LEETLLNTKLETADLKWVTFPQVDGQWEELSGLDEEQHSVRTYEVCDVQRAPGQAHWLRTGWVPRRGAVHVYATLRFTMLECLSLPRAGRSCKETFTVFYYESDADTATALTPAWMENPYIKVDTVAAEHLTRKRPGAEATGKVNVKTLRLGPLSKAGFYLAFQDQGACMALLSLHLFYKKCAQLTVNLTRFPETVPRELVVPVAGSCVVDAVPAPGPSPSLYCREDGQWAEQPVTGCSCAPGFEAAEGNTKCRACAQGTFKPLSGEGSCQPCPANSHSNTIGSAVCQCRVGYFRARTDPRGAPCTTPPSAPRSVVSRLNGSSLHLEWSAPLESGGREDLTYALRCRECRPGGSCAPCGGDLTFDPGPRDLVEPWVVVRGLRPDFTYTFEVTALNGVSSLATGPVPFEPVNVTTDREVPPAVSDIRVTRSSPSSLSLAWAVPRAPSGAVLDYEVKYHEKGAEGPSSVRFLKTSENRAELRGLKRGASYLVQVRARSEAGYGPFGQEHHSQTQLDESEGWREQLA
modifications: extracellular domain
As for B1, the “inhibition of EphB4 signaling” value is reported as “completely inhibits EphB4 signaling”.
